From publication PMC2937569 (Biochemistry, 2010)

Assays:
[1] = biological target: the molecule itself; assay: velocity sedimentation on a sucrose gradient
[2] = biological target: the molecule itself; assay: non-reducing SDS-PAGE/Western blot

Protein	stoichiometry N [1]	stoichiometry N [2]
wild-type (WT) RDS (retinal degeneration slow; Peripherin/rds), recombinant in COS-1 cells (natural protein, murine, UniProt P15499 1-346, looked up) MALLKVKFDQKKRVKLAQGLWLMNWLSVLAGIVLFSLGLFLKIELRKRSEVMNNSESHFVPNSLIGVGVLSCVFNSLAGKICYDALDPAKYAKWKPWLKPYLAVCIFFNVILFLVALCCFLLRGSLESTLAYGLKNGMKYYRDTDTPGRCFMKKTIDMLQIEFKCCGNNGFRDWFEIQWISNRYLDFSSKEVKDRIKSNVDGRYLVDGVPFSCCNPSSPRPCIQYQLTNNSAHYSYDHQTEELNLWLRGCRAALLNYYSSLMNSMGVVTLLVWLFEVSITAGLRYLHTALESVSNPEDPECESEGWLLEKSVPETWKAFLESFKKLGKSNQVEAEGADAGPAPEAG	4	2
N244H RDS, recombinant in COS-1 cells (natural protein, murine, UniProt P15499 1-346, looked up) MALLKVKFDQKKRVKLAQGLWLMNWLSVLAGIVLFSLGLFLKIELRKRSEVMNNSESHFVPNSLIGVGVLSCVFNSLAGKICYDALDPAKYAKWKPWLKPYLAVCIFFNVILFLVALCCFLLRGSLESTLAYGLKNGMKYYRDTDTPGRCFMKKTIDMLQIEFKCCGNNGFRDWFEIQWISNRYLDFSSKEVKDRIKSNVDGRYLVDGVPFSCCNPSSPRPCIQYQLTNNSAHYSYDHQTEELHLWLRGCRAALLNYYSSLMNSMGVVTLLVWLFEVSITAGLRYLHTALESVSNPEDPECESEGWLLEKSVPETWKAFLESFKKLGKSNQVEAEGADAGPAPEAG	4	2
N244K RDS, recombinant in COS-1 cells (natural protein, murine, UniProt P15499 1-346, looked up) MALLKVKFDQKKRVKLAQGLWLMNWLSVLAGIVLFSLGLFLKIELRKRSEVMNNSESHFVPNSLIGVGVLSCVFNSLAGKICYDALDPAKYAKWKPWLKPYLAVCIFFNVILFLVALCCFLLRGSLESTLAYGLKNGMKYYRDTDTPGRCFMKKTIDMLQIEFKCCGNNGFRDWFEIQWISNRYLDFSSKEVKDRIKSNVDGRYLVDGVPFSCCNPSSPRPCIQYQLTNNSAHYSYDHQTEELKLWLRGCRAALLNYYSSLMNSMGVVTLLVWLFEVSITAGLRYLHTALESVSNPEDPECESEGWLLEKSVPETWKAFLESFKKLGKSNQVEAEGADAGPAPEAG	4	
